Experimental data published in EP2495257A2 (Abbott Laboratories, dated 2012).

Columns and labels:
human IL-12 = target: T1, human IL-12 (human, UniProt P29459 23-219; P29460 23-328); assay: cell-based or functional assay
T1 sequence (looked up) 1: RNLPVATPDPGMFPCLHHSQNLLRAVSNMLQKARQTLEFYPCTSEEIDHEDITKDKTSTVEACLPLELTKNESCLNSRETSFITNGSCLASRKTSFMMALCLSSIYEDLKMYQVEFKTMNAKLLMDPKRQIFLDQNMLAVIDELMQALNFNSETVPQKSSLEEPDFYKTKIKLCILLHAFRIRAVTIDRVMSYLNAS
T1 sequence (looked up) 2: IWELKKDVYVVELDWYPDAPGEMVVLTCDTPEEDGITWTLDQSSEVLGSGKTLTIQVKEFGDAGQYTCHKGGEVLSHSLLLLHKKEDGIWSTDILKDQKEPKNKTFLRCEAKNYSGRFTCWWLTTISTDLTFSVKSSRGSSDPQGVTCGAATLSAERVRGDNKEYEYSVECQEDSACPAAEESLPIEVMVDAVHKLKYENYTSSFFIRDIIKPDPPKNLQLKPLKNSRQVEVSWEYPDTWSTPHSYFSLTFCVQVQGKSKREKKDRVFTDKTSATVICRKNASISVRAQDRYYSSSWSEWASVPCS

human IL-18 [1] = target: T2, human IL-18 (human, UniProt Q14116 37-193); assay: cell-based or functional assay
human IL-18 [2] = target: T2, human IL-18; assay: SPR (Biacore)

B1: ABT-874 (fully human anti-human IL-12p40 mAb) (antibody, V domains shown)
VH: QVQLVESGGGVVQPGRSLRLSCAASGFTFSSYGMHWVRQAPGKGLEWVAFIRYDGSNKYYADSVKGRFTISRDNSKNTLYLQMNSLRAEDTAVYYCKTHGSHDNWGQGTMVTVSS
VL: QSVLTQPPSVSGAPGQRVTISCSGSRSNIGSNTVKWYQQLPGTAPKLLIYYNDQRPSGVPDRFSGSKSGTSASLAITGLQAEDEADYYCQSYDRYTHPALLFGTGTKVTVLG
- IC50 (M), IL-12-induced IFN-γ production by PHA blast cells (human IL-12): 5e-12 M

B2: ABT-325 (fully human anti-human IL-18 mAb) (antibody, V domains shown)
VH: EVQLVQSGTEVKKPGESLKISCKGSGYTVTSYWIGWVRQMPGKGLEWMGFIYPGDSETRYSPTFQGQVTISADKSFNTAFLQWSSLKASDTAMYYCARVGSGWYPYTFDIWGQGTMVTVSS
VL: not shown
- IC50 (M), KG-1 bioassay (IL-18-induced IFN-γ production) (human IL-18 [1]): 3e-10 M

B3: DVD1812SL (anti-IL-18/IL-12 DVD-Ig, 18-12-C, short linker) (bispecific antibody, human IgG1, kappa)
heavy: not shown
light: EIVMTQSPATLSVSPGERATLSCRASESISSNLAWYQQKPGQAPRLFIYTASTRATDIPARFSGSGSGTEFTLTISSLQSEDFAVYYCQQYNNWPSITFGQGTRLEIKRTVAAPQSVLTQPPSVSGAPGQRVTISCSGSRSNIGSNTVKWYQQLPGTAPKLLIYYNDQRPSGVPDRFSGSKSGTSASLAITGLQAEDEADYYCQSYDRYTHPALLFGTGTKVTVLGTVAAPSVFIFPPSDEQLKSGTASVVCLLNNFYPREAKVQWKVDNALQSGNSQESVTEQDSKDSTYSLSSTLTLSKADYEKHKVYACEVTHQGLSSPVTKSFNRGEC
notes: also called DVD1812HC-SL / DVD1812LC-SL
- Potency (IC50, M), KG-1 bioassay (human IL-18 [1]): 4e-11 M
- Kd (human IL-18 [2]): 110 pM

B4: DVD1812LL (anti-IL-18/IL-12 DVD-Ig, 18-12-C, long linker) (bispecific antibody, human IgG1, kappa)
heavy: not shown
light: EIVMTQSPATLSVSPGERATLSCRASESISSNLAWYQQKPGQAPRLFIYTASTRATDIPARFSGSGSGTEFTLTISSLQSEDFAVYYCQQYNNWPSITFGQGTRLEIKRTVAAPSVFIFPPQSVLTQPPSVSGAPGQRVTISCSGSRSNIGSNTVKWYQQLPGTAPKLLIYYNDQRPSGVPDRFSGSKSGTSASLAITGLQAEDEADYYCQSYDRYTHPALLFGTGTKVTVLGTVAAPSVFIFPPSDEQLKSGTASVVCLLNNFYPREAKVQWKVDNALQSGNSQESVTEQDSKDSTYSLSSTLTLSKADYEKHKVYACEVTHQGLSSPVTKSFNRGEC
- Potency (IC50, M), KG-1 bioassay (human IL-18 [1]): 7.8e-11 M
